Measurements reported in US20240336672A1.

Legend:
Details in all cases: remark: other sources report otherwise
[1] = target: SARS-CoV-2 RBD domain, Wuhan (SARS-CoV-2); assay: ELISA; design: unit not given beside the values
[2] = target: SARS-CoV-2 RBD domain, Wuhan (SARS-CoV-2); assay: competition ELISA, biotinylated RBD to immobilized ACE2 ectodomain
[3] = target: T1, SARS-CoV-2 Spike (S) protein on cells (S-Flow assay) (SARS-CoV-2), P0DTC2; assay: S-Flow flow cytometry, spike-expressing cells
[4] = target: SARS-CoV-2 RBD domain, Wuhan (SARS-CoV-2); assay: SPR (Biacore), IgG immobilized, viral protein as analyte
[5] = target: SARS-CoV-2 RBD domain, Wuhan (SARS-CoV-2); assay: ELISA
[6] = target: SARS-CoV-2 RBD domain, Wuhan (SARS-CoV-2); assay: competition ELISA vs bio-Cv2.1353
[7] = target: CoV-MERS Spike ectodomain (MERS-CoV), K9N5Q8; assay: ELISA, coated antigen
[8] = target: SARS-CoV-2 RBD domain, Wuhan (SARS-CoV-2); assay: ELISA, coated antigen
[9] = target: SARS-CoV-1 Spike ectodomain (SARS-CoV-1), P59594; assay: ELISA, coated antigen
[10] = target: SARS-CoV-2 RBD domain, Wuhan (SARS-CoV-2); assay: SPR (Biacore), antibody immobilised
[11] = target: SARS-CoV-2 RBD domain, Wuhan (SARS-CoV-2); assay: RBD-ACE2 competition ELISA; design: unit not given beside the values
[12] = target: SARS-CoV-2 RBD domain, Wuhan (SARS-CoV-2); assay: competition ELISA vs bio-Cv2.3235
[13] = target: SARS-CoV-2 RBD domain, Wuhan (SARS-CoV-2); assay: RBD/ACE2 blocking ELISA
[14] = target: SARS-CoV-2 RBD domain, Wuhan (SARS-CoV-2); assay: RBD-ACE2 competition ELISA; design: unit not given beside the values; remark: listed apart in the source
[15] = target: SARS-CoV-2 RBD domain, Wuhan (SARS-CoV-2); assay: competition ELISA vs bio-Cv2.5213
[16] = target: SARS-CoV-2 RBD domain, Wuhan (SARS-CoV-2); assay: ELISA; design: unit not given beside the values; remark: listed apart in the source
[17] = target: T1, SARS-CoV-2 Spike (S) protein on cells …; assay: flow cytometry, transfected cells
[18] = target: SARS-CoV-2 RBD domain, Wuhan (SARS-CoV-2); assay: competition ELISA vs bio-Cv2.1169
[19] = target: SARS-CoV-2 RBD domain, Wuhan (SARS-CoV-2); assay: ELISA; design: unit not given beside the values; remark: listed apart in the source
[20] = target: SARS-CoV-2 RBD domain, Wuhan (SARS-CoV-2); assay: competition ELISA vs bio-Cv2.3194
[21] = target: SARS-CoV-2 RBD domain, Wuhan (SARS-CoV-2); assay: SPR (Biacore), antibody coupled to CM5 chip, viral protein as analyte
[22] = target: T1, SARS-CoV-2 Spike (S) protein on cells …; assay: flow cytometry (Mock 2.5)

B1: Cv2.3194 (recombinant human IgG1) (antibody)
heavy: EVQLVESGGGLIQPGGSLRLSCAASGITVTSNYMSWVRQAPGKGLEWVSVIYPGGSTFYADSVKGRFTISRDNSKNTLYLQMNSLRAEDTAVYYCARDLVVYGMDVWGQGTTVTVSSASTKGPSVFPLAPSSKSTSGGTAALGCLVKDYFPEPVTVSWNSGALTSGVHTFPAVLQSSGLYSLSSVVTVPSSSLGTQTYICNVNHKPSNTKVDKKVEPKSCDKTHTCPPCPAPELLGGPSVFLFPPKPKDTLMISRTPEVTCVVVDVSHEDPEVKFNWYVDGVEVHNAKTKPREEQYNSTYRVVSVLTVLHQDWLNGKEYKCKVSNKALPAPIEKTISKAKQPREPQVYTLPPSRDELTKNQVSLTCLVKGFYPSDIAVEWESNGQPENNYKTTPPVLDSDGSFFLYSKLTVDKSRWQQGNVFSCSVMHEALHNHYTQKSLSLSPGK
light: EIVLTQSPGTLSLSPGERATLSCRASQSVSSSYLAWYQQKPGQAPRLLIYGASSRATGIPGRFSGSGSGTDFTLTISRLEPEDFAIYYCQQGVTFGGGTKVEIKRTVAAPSVFIFPPSDEQLKSGTASVVCLLNNFYPREAKVQWKVDNALQSGNSQESVTEQDSKDSTYSLSSTLTLSKADYEKHKVYACEVTHQGLSSPVTKSFNRGEC
AUC (RBD bind.) [1]: 12
IC50 [2]: 0.099 µg/mL
IC90 [2]: 0.185 µg/mL
S-Flow (%) [3]: 94%
S-Flow (MFI) [3]: 260000 MFI
Kd [4]: 6.27 pM
koff [4]: 3.06e-06 s⁻¹
kon [4]: 487000 M⁻¹ s⁻¹
OD405nm [5]: 3.4
% inhibition (competition) [6]: 65
ELISA OD [7]: 0.1 OD
ELISA OD [8]: 3.6 OD
ELISA OD [9]: 0.1 OD
Kd [10]: < 100 pM
AUC (RBD block.) [11]: 365
% inhibition (competition) [12]: 74
% binding inhibition [13]: 96%
AUC (RBD block.) [14]: 183
% inhibition (competition) [15]: 70
AUC [16]: 3
log10 ΔgMFI [17]: 4
% inhibition (competition) [18]: 56
AUC (RBD bind.) [19]: 13
% inhibition (competition) [20]: 72
Kd [21]: < 1 pM
log10 ΔgMFI [22]: 4.4
